Assay results taken from paper PMC12630831 (Nature Communications, 2025).

Biological target: the molecule itself
Test: SDS-PAGE under DTT-free conditions with western blot

| Protein | stoichiometry N |
| --- | --- |
| FLAG-tagged PRDX1 C83A expressed in HEK293 cells (natural protein, UniProt Q06830 1-199, looked up) MSSGNAKIGHPAPNFKATAVMPDGQFKDISLSDYKGKYVVFFFYPLDFTFVCPTEIIAFSDRAEEFKKLNCQVIGASVDSHFAHLAWVNTPKKQGGLGPMNIPLVSDPKRTIAQDYGVLKADEGISFRGLFIIDDKGILRQITVNDLPVGRSVDETLRLVQAFQFTDKHGEVCPAGWKPGSDTIKPDVQKSKEYFSKQK | 2 |
| FLAG-tagged WT PRDX1 expressed in HEK293 cells (natural protein, UniProt Q06830 1-199, looked up) MSSGNAKIGHPAPNFKATAVMPDGQFKDISLSDYKGKYVVFFFYPLDFTFVCPTEIIAFSDRAEEFKKLNCQVIGASVDSHFCHLAWVNTPKKQGGLGPMNIPLVSDPKRTIAQDYGVLKADEGISFRGLFIIDDKGILRQITVNDLPVGRSVDETLRLVQAFQFTDKHGEVCPAGWKPGSDTIKPDVQKSKEYFSKQK | 2 |
